# Legend:
# [1] = biological target: Biotinylated NR-LU-10 (lysine); assay: cell-based or functional assay
# [2] = biological target: Biotinylated NR-LU-10 (thiol); assay: cell-based or functional assay
# [3] = biological target: Avidin (UniProt P02701); assay: binding of radioiodinated biotinylated antibody to avidin-agarose
# [4] = biological target: NR-LU-10 antigen (approximately 40 kilodalton glycoprotein antigen expressed on most carcinomas) (human) (UniProt P16422); assay: limiting antigen ELISA, percent of native NR-LU-10
# [5] = biological target: NR-LU-10 antigen on LS-180 tumor cells (human) (UniProt P16422); assay: binding to LS-180 tumor cells at antigen excess, percent of native NR-LU-10
# [6] = biological target: Avidin (UniProt P02701); assay: residual circulating radiolabeled antibody after avidin injection in mice, examined in vitro on immobilized biotin
# [7] = biological target: NR-LU-10 antigen (approximately 40 kilodalton glycoprotein antigen expressed on most carcinomas) (human) (UniProt P16422); assay: ELISA, percent of native NR-LU-10 (thiol biotinylation)
# [8] = biological target: NR-LU-10 antigen on LS-180 tumor cells (human) (UniProt P16422); assay: cell binding, percent of native NR-LU-10 (LS-180 cells as described for Table 2)
# [9] = biological target: Streptavidin (UniProt P22629); assay: 20 ug radiolabeled protein with 400 ul streptavidin-agarose beads, spun and washed, counted
# Chain of Streptavidin (P22629 37-163 limits assumed): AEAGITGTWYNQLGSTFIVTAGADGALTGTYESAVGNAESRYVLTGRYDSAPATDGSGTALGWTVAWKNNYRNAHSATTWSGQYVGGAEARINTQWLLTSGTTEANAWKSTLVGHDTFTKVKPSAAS
# Chain of NR-LU-10 antigen on LS-180 tumor cells (human) (P16422 24-314): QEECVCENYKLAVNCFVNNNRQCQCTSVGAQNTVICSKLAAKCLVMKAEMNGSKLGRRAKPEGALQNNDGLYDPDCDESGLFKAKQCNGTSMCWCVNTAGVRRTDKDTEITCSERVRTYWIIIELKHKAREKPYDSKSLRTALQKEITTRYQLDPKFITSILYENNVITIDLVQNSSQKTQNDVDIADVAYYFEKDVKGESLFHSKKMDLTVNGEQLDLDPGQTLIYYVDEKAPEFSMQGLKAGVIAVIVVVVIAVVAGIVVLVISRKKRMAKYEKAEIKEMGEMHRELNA
# Chain of NR-LU-10 antigen (approximately 40 kilodalton glycoprotein antigen expressed on most carcinomas) (human) (P16422 24-314): as above
# Chain of Avidin (P02701 25-152 limits assumed): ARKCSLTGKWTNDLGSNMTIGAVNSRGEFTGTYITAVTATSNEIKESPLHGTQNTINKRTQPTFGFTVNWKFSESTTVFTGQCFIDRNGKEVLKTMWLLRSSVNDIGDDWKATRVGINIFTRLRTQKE
substance,measurement,setting,value
Avidin (from UniProt P02701 25-152),blood pool concentration of biotinylated antibody in mice after avidin administration,[1],10 fold
same,circulating antibody level in mice after avidin administration (% of injected dose),[2],35
Biotinylated NR-LU-10 (lysine) (antibody),% specific binding to immobilized avidin-agarose,[3],98%
"Biotinylated NR-LU-10 (lysine), molar offering 5:1, measured 3.4 biotins/Ab (antibody)","Immunoassessment (%) ELISA, immunoreactivity as compared to native antibody",[4],86%
"Biotinylated NR-LU-10 (lysine), molar offering 10:1, measured 8.5 biotins/Ab (antibody)","Immunoassessment (%) ELISA, immunoreactivity as compared to native antibody",[4],73%
same,Immunoassessment (%) Cell Binding,[5],100%
"Biotinylated NR-LU-10 (lysine), molar offering 13:1, measured 11.1 biotins/Ab (antibody)","Immunoassessment (%) ELISA, immunoreactivity as compared to native antibody",[4],69%
same,Immunoassessment (%) Cell Binding,[5],102%
"Biotinylated NR-LU-10 (lysine), molar offering 20:1, measured 13.4 biotins/Ab (antibody)","Immunoassessment (%) ELISA, immunoreactivity as compared to native antibody",[4],36%
same,Immunoassessment (%) Cell Binding,[5],106%
"Biotinylated NR-LU-10 (lysine), molar offering 40:1, measured 23.1 biotins/Ab (antibody)","Immunoassessment (%) ELISA, immunoreactivity as compared to native antibody",[4],27%
Biotinylated NR-LU-10 (thiol) (antibody),% specific binding to immobilized avidin-agarose,[3],98%
same,% of biotinylated antibody complexed with avidin,[6],85%
"Biotinylated NR-LU-10 (thiol), molar offering 10:1, measured 4.7 biotins/Ab (antibody)","Immunoassessment (%) ELISA, immunoreactivity as compared to native antibody",[7],114%
"Biotinylated NR-LU-10 (thiol), molar offering 50:1, measured 6.5 biotins/Ab (antibody)","Immunoassessment (%) ELISA, immunoreactivity as compared to native antibody",[7],102%
same,Immunoassessment (%) Cell Binding,[8],100%
"Biotinylated NR-LU-10 (thiol), molar offering 100:1, measured 6.1 biotins/Ab (antibody)","Immunoassessment (%) ELISA, immunoreactivity as compared to native antibody",[7],95%
same,Immunoassessment (%) Cell Binding,[8],100%
Biotinylated human asialoorosomucoid (from UniProt P02763 19-201),% radioactivity in Pellet (bound to streptavidin-agarose),[9],90%
same,% radioactivity in Supernatant (not bound to streptavidin-agarose),[9],10%
"Biotinylated human orosomucoid, PIP-125-labeled (from UniProt P02763 19-201)",% radioactivity in Pellet (bound to streptavidin-agarose),[9],92%
same,% radioactivity in Supernatant (not bound to streptavidin-agarose),[9],7.7%
